Measurements from IntAct's records for PubMed 15563508.

B1: Carbonic anhydrase 4 (Homo sapiens), P22748 (parent)
chain: MRMLLALLALSAARPSASAESHWCYEVQAESSNYPCLVPVKWGGNCQKDRQSPINIVTTKAKVDKKLGRFFFSGYDKKQTWTVQNNGHSVMMLLENKASISGGGLPAPYQAKQLHLHWSDLPYKGSEHSLDGEHFAMEMHIVHEKEKGTSRNVKEAQDPEDEIAVLAFLVEAGTQVNEGFQPLVEALSNIPKPEMSTTMAESSLLDLLPKEEKLRHYFRYLGSLTTPTCDEKVVWTVFREPIQLHREQILAFSQKLYYDKEQTVSMKDNVRPLQQLGQRTVIKSGAPGRPLPWALPALLGPMLACLLAGFLR
partner: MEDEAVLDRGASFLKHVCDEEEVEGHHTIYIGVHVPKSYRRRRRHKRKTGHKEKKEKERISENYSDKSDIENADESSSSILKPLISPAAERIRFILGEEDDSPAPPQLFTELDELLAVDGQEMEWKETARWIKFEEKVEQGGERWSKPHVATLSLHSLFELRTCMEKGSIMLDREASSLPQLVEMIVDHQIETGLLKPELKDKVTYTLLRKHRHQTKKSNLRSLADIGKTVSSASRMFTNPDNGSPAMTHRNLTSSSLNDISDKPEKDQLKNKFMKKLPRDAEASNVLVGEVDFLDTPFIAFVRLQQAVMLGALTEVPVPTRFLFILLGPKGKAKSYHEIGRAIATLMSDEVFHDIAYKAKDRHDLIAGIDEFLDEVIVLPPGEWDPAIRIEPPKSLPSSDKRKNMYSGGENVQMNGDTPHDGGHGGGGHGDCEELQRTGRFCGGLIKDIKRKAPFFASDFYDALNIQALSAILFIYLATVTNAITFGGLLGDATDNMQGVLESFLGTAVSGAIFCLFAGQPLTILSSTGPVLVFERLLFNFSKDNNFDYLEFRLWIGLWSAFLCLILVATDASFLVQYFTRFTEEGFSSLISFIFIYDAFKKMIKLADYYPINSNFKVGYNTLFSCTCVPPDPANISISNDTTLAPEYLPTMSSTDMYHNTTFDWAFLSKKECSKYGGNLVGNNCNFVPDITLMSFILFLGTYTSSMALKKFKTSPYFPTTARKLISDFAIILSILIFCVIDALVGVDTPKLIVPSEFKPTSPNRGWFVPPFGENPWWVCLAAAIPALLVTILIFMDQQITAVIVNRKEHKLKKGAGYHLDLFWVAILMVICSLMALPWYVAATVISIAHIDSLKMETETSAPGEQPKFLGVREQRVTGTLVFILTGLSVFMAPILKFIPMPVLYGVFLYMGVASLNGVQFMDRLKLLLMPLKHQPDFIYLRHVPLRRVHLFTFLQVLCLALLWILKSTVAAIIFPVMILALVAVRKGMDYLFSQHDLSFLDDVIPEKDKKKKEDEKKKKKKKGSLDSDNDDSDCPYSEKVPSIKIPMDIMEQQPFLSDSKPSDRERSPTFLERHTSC

Variants of: B1
Details: with s4a4_human SLC4A4, Q9Y6R1

effect of a mutation on the interaction | Variant
decreasing interaction | R14W
